# What was measured:
# Format in all cases: biochemical
# [1] = Reactions on alkanes, total turnovers (Table 18): pentane; conditions: pentane (5 C atoms); for % rel. act.: TTN normalized to the highest value of the variant's series; for TTN: total turnovers, standardized reaction conditions
# Experimental: (§1) Reactions on alkanes. Reactions with alkanes from pentane to decane were carried out at 3 mL-scale using 100 mM KPi pH 8.0 buffer containing 2% ethanol (to allow alkane solubilization) and purified protein. 2.5 mL KPi buffer were added with 60 μL of 90 mM alkane solution in ethanol (final conc.=1.8 mM), 150 μL enzyme solution at 1 μM (final conc.=50 nM), and 300 μL NADPH regeneration solution (100 units/mL isocitrate dehydrogenase, 70 mg/mL isocitrate, 1.5 mg/ml NADP^+). Vials were sealed and stirred for 24 hours at 4° C. 1 mL-aliquot of the reaction was removed, added with 10 μl internal standard (25 mM 1-bromohexane in ethanol), and extracted with 200 μl chloroform (30 sec vortexing, 1 min centrifugation at 10000 g). The organic phase was removed and analyzed by gas chromatography. Reactions with ethane, propane, and butane were carried out as described for longer alkanes with the only difference that alkane-saturated KPi buffer was used. Propane reactions with variants from HL5 and L9 libraries were performed on 1 mL-scale reaction using 20 nM enzyme to reduce oxygen limitation. Propane and butane reactions were analyzed by direct injection of reaction solution on the GC using 1-pentanol as internal standard. Ethane reaction products were functionalized (see below) and analyzed by GC using 1-butanol as internal standard. All measurements were performed in triplicate.
# (§2) Products from alkane reactions were identified and quantified by gas chromatography using authentic standards and calibration curves with internal standards. For the reactions with alkanes from pentane to decane, GC analyses were carried out using a Shimadzu GC-17A gas chromatograph, Agilent HP5 column (30 m×0.32 mm×0.1 μm film), 1 μL injection, FID detector, and the following separation program: 250° C. inlet, 250° C. detector, 50° C. oven for 3 min, 5° C./min gradient to 100° C., 25° C./min gradient to 230° C., and 230° C. for 3 min. For butane and propane (TTN) reactions, GC analyses were carried out using a Hewlett-Packard 5890 Series II Plus gas chromatograph, Supelco SPB-1 column (60 m×0.52 mm×0.5 μm film), 0.5 μL injection, FID detector, and the following separation program: 250° C. inlet, 275° C. detector, 80° C. oven for 2 min, 10° C./min gradient to 110° C., 25° C./min gradient to 275° C., and 275° C. for 2.5 min. For ethane and propane (rate) reactions, analysis of reaction mixtures was carried out by derivatization to alkyl nitrites followed by GC-ECD analysis. For laurate, reaction product analysis was carried out by derivatization with N-methyl-N-trimethylsilylheptafluorobutyramide followed by extraction with hexane. Organic solutions were analyzed by FID-GC.
# (§3) TTNs for each variant-substrate pair were determined using standardized reaction conditions (identical enzyme and substrate concentration, incubation time, cofactor regeneration system) (Table 18). TTN values were used to assess performance because TTN is a cumulative measure of both catalytic and coupling efficiency and because mutants were selected based on improvement in this property. To facilitate comparison among the variants, TTNs were normalized to the highest value in the series (MTN=Maximal Turnover Number) and plotted for the increasing-sized substrates (FIG. 38). A gradual shift of the enzyme's substrate preference during laboratory evolution is evident from these profiles. The marginal activity of wild-type BM3 on these substrates (MTN=150) is restricted to the long-chain alkanes, where it is a promiscuous function of BM3's high C12-C20 fatty acid hydroxylase activity. In the first evolutionary intermediates, substrate preference centers on medium-chain alkanes […], reflecting their selection for activity on octane. In 35E11, selected for activity on propane, preference still centers on C6-C8 alkanes but now extends towards the shorter ones, including propane. Propane activity becomes prevalent with the transition from variant ETS8 to 19A12. […]
# [2] = Reactions on alkanes, total turnovers (Table 18): heptane; conditions: heptane (7 C atoms); for % rel. act.: TTN normalized to the highest value of the variant's series; for TTN: total turnovers, standardized reaction conditions
# Experimental: as §1, §2, §3
# [3] = Kinetic constants for n-alkanes: pentane; conditions: N.a. = not active
# Experimental: Rate measurements. Initial rates of product formation were determined at 25° C. in 100 mM KPi pH 8.0 buffer using purified protein (100 nM) and a substrate concentration of 1.6 mM. In a 5 mL-vial, 20 μL of alkane solution (in ethanol) were dissolved in 400 μL KPi buffer, to which 500 μL enzyme solution at 100-200 nM was added. Reaction was initiated by adding 100 μL of 5 mM NADPH solution, followed by stirring at 300 rpm for 1 minute, and quenched by adding 200 μL chloroform and stirring at 800 rpm for 10 sec. Solutions were transferred to an Eppendorf tube, to which internal standard (10 μL 25 mM 1-bromohexane in ethanol) was added. Tubes were vortexed for 10 sec and centrifuged for 30 sec at 10,000 g. Organic phase was removed and analyzed by GC. For propane, reactions were carried out in a 5 mL-scale using 100-400 nM purified enzyme, propane-saturated buffer (propane concentration≈1.6 mM) and a final NADPH concentration of 500 μM. Reactions were stopped by addition of 200 μL H2SO4 conc. and analyzed by derivatization to alkyl nitrites followed by GC-ECD analysis as described below.
# as §2
# To further investigate the evolution of substrate specificity, kinetic constants for the C5 to C8 alkanes were determined from Michaelis-Menten plots (Table 19). The preference of 35E11 and its evolutionary predecessors for medium-chain alkanes is indicated by their high C8/C5 specificities ((kcat/Km)8/(kcat/Km)5˜100), where Km appears to be the major contributing factor. […]
Molecule,% rel. act. [1] [%],TTN [1],% rel. act. [2] [%],TTN [2],Km [3] [µM],kcat [3] [s⁻¹]
"35-E11: P450 BM-3 variant, SEQ ID NO:7: 53-5H substitutions plus E464G and I710T (protein, mutant P450 35-E11 protein sequence) TIKEMPQPKTFGELKNLPLLNTDKPVQALMKIADELGEIFKFEAPGCVTRYLSSQRLIKEACDESRFDKNLSQALKFFRDFSGDGLFTSWTHEINWKKAHNILLPSFSQQAMKGYHAMMVDIAVQLVQKWERLNADEHIEVSEDMTRLTLDTIGLCGFNYRFNSFYRDQPHPFIISMVRALDEVMNKLQRANPDDPAYDENKRQCQEDIKVMNDLVDKIIADRKARGEQSDDLLTQMLNGKDPETGEPLDDGNISYQIITFLIAGHETTSGLLSFALYFLVKNPHVLQKVVEEAARVLVDPVPSYKQVKQLKYVGMVLNEALRLWPTFPAFSLYAKEDTVLGGEYPLEKGDEVMVLIPQLHRDKTIWGDDVEEFRPERFENPSAIPQHAFKPFGNGQRACIGQQFALHEATLVLGMMLKHFDFEDHTNYELDIKETLTLKPEGFVVKAKSKKIPLGGIPSPSTGQSAKKVRKKAENAHNTPLLVLYGSNMGTAEGTARDLADIAMSKGFAPQVATLDSHAGNLPREGAVLIVTASYNGHPPDNAKQFVDWLDQASADEVKGVRYSVFGCGDKNWATTYQKVPAFIDETLAAKGAENIADRGEADASDDFEGTYEEWREHMWSDVAAYFNLDIENSEDNKSTLSLQFVDSAADMPLAKMHGAFSTNVVASKELQQPGSARSTRHLEIELPKEASYQEGDHLGVIPRNYEGTVNRVTARFGLDASQQIRLEAEEEKLAHLPLAKTVSVEELLQYVELQDPVTRTQLRAMAAKTVCPPHKVELEALLEKQAYKEQVLAKRLTMLELLEKYPACEMKFSEFIALLPSIRPRYYSISSSPRVDEKQASITVSVVSGEAWSGYGEYKGIASNYLAELQEGDTITCFISTPQSEFTLPKDPETPLIMVGPGTGVAPFRGFVQARKQLKEQGQSLGEAHLYFGCRSPHEDYLYQEELENAQSEGIITLHTAFSRMPNQPKTYVQHVMEQDGKKLIELLDQGAHFYICGDGSQMAPAVEATLMKSYADVHQVSEADARLWLQQLEEKGRYAKDVWAG",75.6,4800 ± 174,81.4,5170 ± 148,1030 ± 57,12.7 ± 0.867
"P450PMO: P450 BM-3 variant, SEQ ID NO:125; 7-7 plus G443A and D698G; propane monooxygenase (protein, Mutant P450PMO protein sequence, 7-7 plus G443A and D698G; propane monooxygenase) TIKEMPQPKTFGELKNLPLLNTDKPVQALMKIADELGEIFKFEAPGCVTRYISSQRLIKEACDESRFDKNLSQELKFFRDFGGDGLFTSWTHEINWKKAHNILLPSFSQQAMKGYHAMMVDIAVQLVQKWERLNADEHIEVSEDMTRLTLDTIGLCGFNYRFNSFYRDQPHPFIISMVRALDEVMNKPQRANPDDPAYDENKRQCQEDIKVMNDLVDKIIADRKARGEQSDDLLTQMLNGKDPETGEPLDDGNISYQIITFLIAGHETTSGLLSFALYFLVKNPHVLQKVVEEAARVLVDPVPSYKQVKQLKYVGMVLNEALRLWPTFPAFSLYAKEDTVLGGEYPLEKGDEVMVLIPQLHRDKTVWGDDVEEFRPERFENPSAIPQHAFKPFGNGQRACIGQQFALHEATLVLGMMLKHFDFEDHTNYELDIKETLTLKPEAFVVKAKSKKIPLGGIPSPSTGQSAKKVRKKAENAHNTPLLVLYGSNMGTAEGTARDLADIAMSKGFAPQVATLDSHAGNLPREGAVLIVTASYNGHPPDNAKQFVDWLDQASADEVKGVRYSVFGCGDKNWATTYQKVPAFIDETLAAKGAENIADRGEADASDDFEGTYEEWREHMWSDVAAYFNLDIENSEDNKSTLSLQFVDSAADMPLAKMHGAFSTNVVASKELQQPGSARSTRHLEIELPKEASYQEGGHLGVIPRNYEGTVNRVTARFGLDASQQIRLEAEEEKLAHLPLAKTVSVEELLQYVELQDPVTRTQLRAMAAKTVCPPHKVELEALLEKQAYKEQVLAKRLTMLELLEKYPACEMKFSEFIALLPSIRPRYYSISSSPRVDEKQASITVSVVSGEAWSGYGEYKGIASNYLAELQEGDTITCFISTPQSEFTLPKDPETPLIMVGPGTGVAPFRGFVQARKQLKEQGQSLGEAHLYFGCRSPHEDYLYQEELENAQSEGIITLHTAFSRMPNQPKTYVQHVMEQDGKKLIELLDQGAHFYICGDGSQMAPAVEATLMKSYADVHQVSEADARLWLQQLEEKGRYAKDVWAG",4.9,1000 ± 110,14.6,2990 ± 165,835 ± 117,2.5 ± 0.233
"Wild-type BM-3: wild-type cytochrome P450 BM-3 from Bacillus megaterium, SEQ ID NO:1 (protein, listed as Bacillus megaterium) TIKEMPQPKTFGELKNLPLLNTDKPVQALMKIADELGEIFKFEAPGRVTRYLSSQRLIKEACDESRFDKNLSQALKFVRDFAGDGLFTSWTHEKNWKKAHNILLPSFSQQAMKGYHAMMVDIAVQLVQKWERLNADEHIEVPEDMTRLTLDTIGLCGFNYRFNSFYRDQPHPFITSMVRALDEAMNKLQRANPDDPAYDENKRQFQEDIKVMNDLVDKIIADRKASGEQSDDLLTHMLNGKDPETGEPLDDENIRYQIITFLIAGHETTSGLLSFALYFLVKNPHVLQKAAEEAARVLVDPVPSYKQVKQLKYVGMVLNEALRLWPTAPAFSLYAKEDTVLGGEYPLEKGDELMVLIPQLHRDKTIWGDDVEEFRPERFENPSAIPQHAFKPFGNGQRACIGQQFALHEATLVLGMMLKHFDFEDHTNYELDIKETLTLKPEGFVVKAKSKKIPLGGIPSPSTEQSAKKVRKKAENAHNTPLLVLYGSNMGTAEGTARDLADIAMSKGFAPQVATLDSHAGNLPREGAVLIVTASYNGHPPDNAKQFVDWLDQASADEVKGVRYSVFGCGDKNWATTYQKVPAFIDETLAAKGAENIADRGEADASDDFEGTYEEWREHMWSDVAAYFNLDIENSEDNKSTLSLQFVDSAADMPLAKMHGAFSTNVVASKELQQPGSARSTRHLEIELPKEASYQEGDHLGVIPRNYEGIVNRVTARFGLDASQQIRLEAEEEKLAHLPLAKTVSVEELLQYVELQDPVTRTQLRAMAAKTVCPPHKVELEALLEKQAYKEQVLAKRLTMLELLEKYPACEMKFSEFIALLPSIRPRYYSISSSPRVDEKQASITVSVVSGEAWSGYGEYKGIASNYLAELQEGDTITCFISTPQSEFTLPKDPETPLIMVGPGTGVAPFRGFVQARKQLKEQGQSLGEAHLYFGCRSPHEDYLYQEELENAQSEGIITLHTAFSRMPNQPKTYVQHVMEQDGKKLIELLDQGAHFYICGDGSQMAPAVEATLMKSYADVHQVSEADARLWLQQLEEKGRYAKDVWAG",0.0,0,12.5,20 ± 5,–,–

# — patent publication US12258605B2, “Alkane oxidation by modified hydroxylases” (The California Institute of Technology, priority 2005, dated 2025)
